Results reported in PMC6340165, “A GntR Family Transcription Factor in Streptococcus mutans Regulates Biofilm Formation and Expression of Multiple Sugar Transporter Genes”.

B1: stsR p3 (dsDNA)
DNA 1: CCACTTGACAATATTTTACTATAATTGTATTATATATATAACAC
DNA 2: GTGTTATATATATAATACAATTATAGTAAAATATTGTCAAGTGG
B2: stsR p3mut (dsDNA)
DNA 1: CCACTTGACAATATTTTACTCCACCTGTCCTCCATATATAACAC
DNA 2: GTGTTATATATGGAGGACAGGTGGAGTAAAATATTGTCAAGTGG

Columns and labels:
[1] = biological target: T1, StsR (GntR family regulator) (Streptococcus mutans UA159) (UniProt Q8DTX4); assay: EMSA; details: 50 mM Tris/HCl, 10 mM NaCl, 0.5 M Mg acetate (so in the source), 0.1 mM EDTA, 5% glycerol, 30 min, 10 uL; 4% native PAGE in 0.5x TBS; pH and binding temperature not …
T1 sequence: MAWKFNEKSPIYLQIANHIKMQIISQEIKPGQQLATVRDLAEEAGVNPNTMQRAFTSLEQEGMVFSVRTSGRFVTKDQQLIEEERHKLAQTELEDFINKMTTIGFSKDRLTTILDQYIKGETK

[2] = biological target: T1, StsR (GntR family regulator) (Streptococcus mutans UA159); assay: DNase I footprinting; details: 50 mM Tris/HCl, 10 mM NaCl, 0.5 M Mg acetate (so in the source), 0.1 mM EDTA, 5% glycerol, 30 min, 10 uL; 4% native PAGE in 0.5x TBS; pH and binding temperature not …
[3] = biological target: StsR (GntR family regulator) (Streptococcus mutans UA159, UniProt Q8DTX4 1-123); assay: EMSA; 10-40 pmol StsR; 50 mM Tris/HCl, 10 mM NaCl, 0.5 M Mg acetate (so in the source), 0.1 mM EDTA, 5% glycerol, 30 min, 10 uL; 4% native PAGE in 0.5x TBS; pH and binding temperature not stated (DNase I digestion at 28 C); details: protein: recombinant; tags: His6 (pET28a); chain copies: 2; label: FITC; annealed with reverse complement

| Molecule | binding [1] | other results |
| --- | --- | --- |
| AAGTGTCTCCTTCTACTTTTTAATAAAATAGTATTGTTTACTCAAATAATCACCTTGCGGCATATCAATGGTCAATCCCGCATACATTAACTCCGCA (double strand) [multiple sugar-binding ABC transporter promoter] | binds |  |
| CAAATTTTGGCAAAACTTTTGTGCCAAAATTTGAGTTTTATTAGAAAATGAAAAATGTTACAGTAGTTTTAGAATAAAAAGGAGGGGATTTCTGATGGAACGAAAATCTTCATTGAAGGTTCGGGTACA (double strand) [mannitol-specific PTS promoter] | binds |  |
| CTTCTGTCTCCTTAAGATCTACTTACTTTTATTATACTACAAATCCTTAAAATCCTCTTACTCTTTCATTTAATTCTACTAAATCTCATCAGTCTAAATTTACCACTTGACAATATTTTACTATAATTGTATTATATATATAACACAATTATACACTGCACTTTAGAAAGGAGAAAAAATGGCT (double strand) [stsR p2] | binds |  |
| CTTATAAAGTAATTTAATATCTTGATGAAATTTTAAAAAAACTTGACATTTTTCGCAAACGATTGCATAATATTATTGTAACAAAAATTACAAAGAAATTTCAGGAGGAAATCGCT (double strand) [maltose ABC transporter promoter] | binds |  |
| CTTCTGTCTCCTTAAGATCTACTTACTTTTATTATACTACAAATCCTTAAAATCCTCTTACTCTTTCATTTAATTCTACTAAATCTCATCAGTCTAAATTTACCACTTGACAATATTTTACTATAATTGTATTATATATATAACACAATTATACACTGCACTTTAGAAAGGAGAAAAAATGGCT (double strand) [stsR p2 FITC] |  | binding [2]: binds |
| CAGGGATATGAAAATGACAAATGACACTGCAAAAGCGTTTTCAAAAAATGTAAAATAAAAATGAAATAAAAAAGAAAGTAGGGTGTATTC (double strand) [mannose-specific PTS promoter] | binds |  |
| B1 |  | binding result [3]: binds |
| B2 |  | binding result [3]: no binding |
